This is an account of results in PMC11601812.

Assay [1] has as its target progesterone receptor isoform A (PR-A), full-length, Strep II tagged (human) (UniProt P06401). The experiment in a line: SEC-MALS; R5020-bound PR-A, SRC3 and p300 mixed with PRE DNA; Superose 6 Increase; 20 mM Hepes, 50 mM NaCl, 5% glycerol, 1 mM TCEP, with or without 1 M urea, pH 7.5.
Assay [2] addresses steroid receptor coactivator 3 (SRC3), full-length, Strep II tagged (human) (UniProt Q9Y6Q9). The description is as above.

steroid receptor coactivator 3 (SRC3), full-length, Strep II tagged (human), sequence (Q9Y6Q9 whole entry): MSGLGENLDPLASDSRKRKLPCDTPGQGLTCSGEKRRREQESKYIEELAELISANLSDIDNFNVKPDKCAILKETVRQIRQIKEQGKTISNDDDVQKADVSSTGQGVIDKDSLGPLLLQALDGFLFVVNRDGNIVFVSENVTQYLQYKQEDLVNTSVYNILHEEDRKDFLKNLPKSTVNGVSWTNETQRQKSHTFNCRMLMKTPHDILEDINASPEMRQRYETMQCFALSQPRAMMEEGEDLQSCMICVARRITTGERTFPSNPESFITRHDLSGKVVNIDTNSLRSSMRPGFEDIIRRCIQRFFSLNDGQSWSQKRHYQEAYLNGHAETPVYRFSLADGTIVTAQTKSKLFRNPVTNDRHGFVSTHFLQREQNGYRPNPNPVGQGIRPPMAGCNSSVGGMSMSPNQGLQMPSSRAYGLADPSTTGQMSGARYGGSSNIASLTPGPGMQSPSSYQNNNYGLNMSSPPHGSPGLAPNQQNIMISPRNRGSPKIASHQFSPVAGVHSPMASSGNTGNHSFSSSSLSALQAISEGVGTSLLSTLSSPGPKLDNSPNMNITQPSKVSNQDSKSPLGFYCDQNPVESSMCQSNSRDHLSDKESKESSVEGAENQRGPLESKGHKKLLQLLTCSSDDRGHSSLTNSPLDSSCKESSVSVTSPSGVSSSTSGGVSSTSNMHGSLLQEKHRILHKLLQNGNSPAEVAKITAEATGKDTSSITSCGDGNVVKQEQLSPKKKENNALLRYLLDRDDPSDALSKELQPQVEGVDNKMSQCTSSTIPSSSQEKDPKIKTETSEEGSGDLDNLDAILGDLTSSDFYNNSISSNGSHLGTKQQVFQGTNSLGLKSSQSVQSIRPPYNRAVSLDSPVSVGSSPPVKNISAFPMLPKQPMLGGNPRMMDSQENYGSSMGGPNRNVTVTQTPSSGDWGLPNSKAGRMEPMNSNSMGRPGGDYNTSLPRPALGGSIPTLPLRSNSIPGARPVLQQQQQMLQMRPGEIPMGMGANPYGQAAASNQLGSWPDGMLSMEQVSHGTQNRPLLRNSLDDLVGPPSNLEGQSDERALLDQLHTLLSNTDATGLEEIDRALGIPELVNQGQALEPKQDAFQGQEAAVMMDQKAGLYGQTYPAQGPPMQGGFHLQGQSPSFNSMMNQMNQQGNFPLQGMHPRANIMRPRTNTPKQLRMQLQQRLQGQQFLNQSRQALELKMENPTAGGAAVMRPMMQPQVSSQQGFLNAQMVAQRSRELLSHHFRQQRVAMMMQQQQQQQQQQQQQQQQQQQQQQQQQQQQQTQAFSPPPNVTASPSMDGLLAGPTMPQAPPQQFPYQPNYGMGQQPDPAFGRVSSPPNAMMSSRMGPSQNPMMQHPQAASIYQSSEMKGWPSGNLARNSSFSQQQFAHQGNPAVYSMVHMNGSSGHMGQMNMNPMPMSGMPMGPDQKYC
progesterone receptor isoform A (PR-A), full-length, Strep II tagged (human), sequence (P06401 165-933): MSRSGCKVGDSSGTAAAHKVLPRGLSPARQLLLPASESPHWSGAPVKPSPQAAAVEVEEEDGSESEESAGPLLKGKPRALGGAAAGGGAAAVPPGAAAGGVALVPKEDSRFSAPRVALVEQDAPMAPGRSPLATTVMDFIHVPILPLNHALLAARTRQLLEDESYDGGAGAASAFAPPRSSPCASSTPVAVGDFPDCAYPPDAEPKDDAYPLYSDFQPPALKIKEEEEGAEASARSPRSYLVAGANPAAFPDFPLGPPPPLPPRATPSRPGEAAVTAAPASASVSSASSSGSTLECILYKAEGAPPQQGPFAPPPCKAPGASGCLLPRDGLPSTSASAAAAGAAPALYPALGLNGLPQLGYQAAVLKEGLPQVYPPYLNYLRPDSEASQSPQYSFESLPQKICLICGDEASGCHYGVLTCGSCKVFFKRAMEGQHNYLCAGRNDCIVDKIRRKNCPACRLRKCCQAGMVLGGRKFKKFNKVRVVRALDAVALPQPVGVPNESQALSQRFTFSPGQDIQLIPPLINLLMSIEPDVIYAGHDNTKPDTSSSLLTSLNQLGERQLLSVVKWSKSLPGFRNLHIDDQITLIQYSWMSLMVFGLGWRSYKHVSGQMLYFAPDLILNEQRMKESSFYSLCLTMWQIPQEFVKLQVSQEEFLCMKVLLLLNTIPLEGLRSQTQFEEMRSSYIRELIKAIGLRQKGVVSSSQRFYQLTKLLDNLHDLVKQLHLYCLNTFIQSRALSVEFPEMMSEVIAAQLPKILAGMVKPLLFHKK

On to “histone acetyltransferase p300, full-length, Strep II tagged, Q09472 1-2414”, for which the stoichiometry N in assay [1] stood at 0.5; in assay [2], 1.

For orientation: stoichiometry N means a count of units in the complex or per binding partner.
